Source: paper PMC3100292 (PLoS ONE, 2011)

Tests used:
[1] = target: PDlim2 fused with the GAL4 DNA-binding domain (pBind-PDlim2) (human) (UniProt Q96JY6); test: two-hybrid
YC-PDlim2 (human) = YC-PDlim2 (human) (UniProt Q96JY6); test: split reporter (BiFC, NanoBiT)
[2] = target: T1, PDlim2 PDZ domain (residues 1-83) (human, UniProt Q96JY6 1-83); test: crystal structure; conditions: both partners purified
T1 construct: also called PDZ region (1-83) of PDlim2
T1 sequence (looked up): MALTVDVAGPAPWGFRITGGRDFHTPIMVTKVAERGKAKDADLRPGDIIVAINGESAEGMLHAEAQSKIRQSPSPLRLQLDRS

Molecule: HN12-NS1 fused with the VP16 transcription activation domain (pACT-NS1) (natural protein)
- relative luciferase activity (firefly/Renilla) [1]: 160 RLU

Molecule: YN-HN12-NS1 wt (natural protein)
- mean fluorescence intensity (MFI) (YC-PDlim2 (human)): 1120
- percent of cells in the high fluorescence zone (YC-PDlim2 (human)): 10.9%

B1: C-terminal hexapeptide of HN12-NS1 (TIESEV) (peptide)
peptide: TIESEV
- binding result [2]: binds
